Among the data in paper PMC8916728 are Kd values, retold here.

This assay has as its target 1-32–captured Pentamer (HCMV Pentamer bound by 1-32 IgG) (human cytomegalovirus (strain Towne) | human) (UniProt P17176). Description: BLI. Background: BLI is a label-free optical method that tracks binding on a fibre tip over time.

B1: untagged NRP2 (receptor)
chain: RGQPDPPCGGRLNSKDAGYITSPGYPQDYPSHQNCEWIVYAPEPNQKIVLNFNPHFEIEKHDCKYDFIEIRDGDSESADLLGKHCGNIAPPTIISSGSMLYIKFTSDYARQGAGFSLRYEIFKTGSEDCSKNFTSPNGTIESPGFPEKYPHNLDCTFTILAKPKMEIILQFLIFDLEHDPLQVGEGDCKYDWLDIWDGIPHVGPLIGKYCGTKTPSELRSSTGILSLTFHTDMAVAKDGFSARYYLVHQEPLENFQCNVPLGMESGRIANEQISASSTYSDGRWTPQQSRLHGDDNGWTPNLDSNKEYLQVDLRFLTMLTAIATQGAISRETQNGYYVKSYKLEVSTNGEDWMVYRHGKNHKVFQANNDATEVVLNKLHAPLLTRFVRIRPQTWHSGIALRLELFGCRVTDAPCSNMLGMLSGLIADSQISASSTQEYLWSPSAARLVSSRSGWFPRIPQAQPGEEWLQVDLGTPKTVKGVIIQGARGGDSITAVEARAFVRKFKVSYSLNGKDWEYIQDPRTQQPKLFEGNMHYDTPDIRRFDPIPAQYVRVYPERWSPAGIGMRLEVLGCDWTDSKPTVETLGPTVKSEETTTPYPTEEEATECGENCSFEDDKDLQLPSGFNCNFDFLEEPCGWMYDHAKWLRTTWASSSSPNDRTFPDDRNFLRLQSDSQREGQYARLISPPVHLPRSPVCMEFQYQATGGRGVALQVVREASQESKLLWVIREDQGGEWKHGRIILPSYDMEYQIVFEGVIGKGRSGEIAIDDIRISTDVPLENCMEPISAFAGENFKVDIPEIHEREGYEDEIDDEYEVDWSNSSSATSGSGAPSTDKEKSWLYTLDPILITIIAMSSLGVLLGATCAGLLLYCTCSYSGLSSRSCTTLENYNFELYDGLKHKVKMNHQKCCSEA
Turning to B1, the Kd came out at 133 nM.

A word on the Kd: it is the constant that tells how readily two partners part at equilibrium. The low end stands for tighter binding, the high end for weaker binding.
